Measurements: patent US20100146651, “MEGANUCLEASE VARIANTS CLEAVING A DNA TARGET SEQUENCE FROM THE HPRT GENE AND USES THEREOF” (CELLECTIS, published 2010)

Legend:
Test in all cases: cell_activity; CHO chromosomal reporter, maximum
[1] = target: T1, HprCH3.3/HprCH3.4 heterodimer (KNSHQS/QRRDI/42A43L + KNTHQS/RYSNN/72T) (synthetic, UniProt P05725;P05725 SEQ:1-163,SEQ:1-163)
T1 chain 1: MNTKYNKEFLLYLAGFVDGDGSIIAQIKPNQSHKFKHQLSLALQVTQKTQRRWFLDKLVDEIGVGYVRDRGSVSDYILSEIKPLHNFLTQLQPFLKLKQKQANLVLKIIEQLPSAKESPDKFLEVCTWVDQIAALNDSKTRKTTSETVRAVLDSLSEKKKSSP
T1 chain 2: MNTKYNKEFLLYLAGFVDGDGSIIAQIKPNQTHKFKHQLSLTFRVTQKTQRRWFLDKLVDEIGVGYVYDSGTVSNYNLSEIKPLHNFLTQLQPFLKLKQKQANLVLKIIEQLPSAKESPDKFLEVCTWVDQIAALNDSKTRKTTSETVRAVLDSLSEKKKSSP
From the text: (§1) To evaluate the cleavage activity of the original and G19S derived mutants a chromosomal reporter system in CHO cells was used (FIG. 20). In this system a single-copy LacZ gene driven by the CMV promoter is interrupted by the HprCH3 site and is thus non-functional. The transfection of the cell line with CHO expression plasmids for HprCH3.3/HprCH3.4 and a LacZ repair plasmid allows the restoration of a functional LacZ gene by homologous recombination. It has previously been shown that double-strand breaks can induce homologous recombination; therefore the frequency with which the LacZ gene is repaired is indicative of the cleavage efficiency of the genomic HprCH3 target site.
(§2) CHO cell lines harbouring the reporter system were seeded at a density of 2×10⁵ cells per 10 cm dish in complete medium (Kaighn's modified F-12 medium (F12-K), supplemented with 2 mM L-glutamine, penicillin (100 UI/ml), streptomycin (100 μg/ml), amphotericin B (Fongizone) (0.25 μg/ml) (INVITROGEN-LIFE SCIENCE) and 10% FBS (SIGMA-ALDRICH CHIMIE). The next day, cells were transfected with Polyfect transfection reagent (QIAGEN). Briefly, 2 μg of lacz repair matrix vector was co-transfected with various amounts of meganucleases expression vectors. After 72 hours of incubation at 37° C., cells were fixed in 0.5% glutaraldehyde at 4° C. for 10 min, washed twice in 100 mM phosphate buffer with 0.02% NP40 and stained with the following staining buffer (10 mM Phosphate buffer, 1 mM MgCl₂, 33 mM K hexacyanoferrate (III), 33 mM K hexacyanoferrate (II), 0.1% (v/v) X-Gal). After, an overnight incubation at 37° C., plates were examined under a light microscope and the number of LacZ positive cell clones counted. The frequency of LacZ repair is expressed as the number of LacZ+ foci divided by the number of transfected cells (5×10⁵) and corrected by the transfection efficiency.

[2] = target: T2, HprCH3.3 G19S/HprCH3.4 heterodimer (synthetic, UniProt P05725;P05725 SEQ:1-163,SEQ:1-163, G19S in first chain)
T2 sequence 1: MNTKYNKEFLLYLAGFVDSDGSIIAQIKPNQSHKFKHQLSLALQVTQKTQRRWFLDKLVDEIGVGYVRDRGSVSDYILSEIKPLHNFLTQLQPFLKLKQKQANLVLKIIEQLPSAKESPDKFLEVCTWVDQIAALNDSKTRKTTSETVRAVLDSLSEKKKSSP
T2 sequence 2: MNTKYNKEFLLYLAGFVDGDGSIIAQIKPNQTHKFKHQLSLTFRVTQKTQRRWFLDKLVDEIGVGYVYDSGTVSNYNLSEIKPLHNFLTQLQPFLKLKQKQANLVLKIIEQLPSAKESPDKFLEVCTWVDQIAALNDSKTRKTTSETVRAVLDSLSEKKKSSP
From the text: as §1, §2

[3] = target: T3, HprCH3.3/HprCH3.4 G19S heterodimer (synthetic, UniProt P05725;P05725 SEQ:1-163,SEQ:1-163, G19S in second chain)
T3 sequence 1: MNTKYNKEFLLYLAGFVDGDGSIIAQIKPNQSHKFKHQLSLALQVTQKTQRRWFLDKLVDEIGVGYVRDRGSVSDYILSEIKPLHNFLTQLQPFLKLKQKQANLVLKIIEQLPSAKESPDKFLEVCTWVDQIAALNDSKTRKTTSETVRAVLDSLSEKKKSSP
T3 sequence 2: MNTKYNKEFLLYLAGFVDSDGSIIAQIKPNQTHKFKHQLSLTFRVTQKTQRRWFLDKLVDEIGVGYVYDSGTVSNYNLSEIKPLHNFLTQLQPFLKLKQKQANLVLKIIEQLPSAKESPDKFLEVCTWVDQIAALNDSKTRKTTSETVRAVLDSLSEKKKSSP
From the text: as §1, §2

B1: HprCH3 (dsDNA)
DNA 1: CGAGATGTCATGAAAGAGATGG
DNA 2: CCATCTCTTTCATGACATCTCG
**Q.** With B1 as the binder, how does the activity [1] read?
**A.** 0.002 LacZ repair frequency

**Q.** And the activity [2]?
**A.** 0.0115 LacZ repair frequency

**Q.** And the activity [3]?
**A.** 0.012 LacZ repair frequency
